Assay results published in IntAct's records for PubMed 26290419.

B1: Kinesin-like protein KIF24 (Homo sapiens), Q5T7B8 (parent)
chain: MASWLYECLCEAELAQYYSHFTALGLQKIDELAKITMKDYSKLGVHDMNDRKRLFQLIKIIKIMQEEDKAVSIPERHLQTSSLRIKSQELRSGPRRQLNFDSPADNKDRNASNDGFEMCSLSDFSANEQKSTYLKVLEHMLPDDSQYHTKTGILNATAGDSYVQTEISTSLFSPNYLSAILGDCDIPIIQRISHVSGYNYGIPHSCIRQNTSEKQNPWTEMEKIRVCVRKRPLGMREVRRGEINIITVEDKETLLVHEKKEAVDLTQYILQHVFYFDEVFGEACTNQDVYMKTTHPLIQHIFNGGNATCFAYGQTGAGKTYTMIGTHENPGLYALAAKDIFRQLEVSQPRKHLFVWISFYEIYCGQLYDLLNRRKRLFAREDSKHMVQIVGLQELQVDSVELLLEVILKGSKERSTGATGVNADSSRSHAVIQIQIKDSAKRTFGRISFIDLAGSERAADARDSDRQTKMEGAEINQSLLALKECIRALDQEHTHTPFRQSKLTQVLKDSFIGNAKTCMIANISPSHVATEHTLNTLRYADRVKELKKGIKCCTSVTSRNRTSGNSSPKRIQSSPGALSEDKCSPKKVKLGFQQSLTVAAPGSTRGKVHPLTSHPPNIPFTSAPKVSGKRGGSRGSPSQEWVIHASPVKGTVRSGHVAKKKPEESAPLCSEKNRMGNKTVLGWESRASGPGEGLVRGKLSTKCKKVQTVQPVQKQLVSRVELSFGNAHHRAEYSQDSQRGTPARPASEAWTNIPPHQKEREEHLRFYHQQFQQPPLLQQKLKYQPLKRSLRQYRPPEGQLTNETPPLFHSYSENHDGAQVEELDDSDFSEDSFSHISSQRATKQRNTLENSEDSFFLHQTWGQGPEKQVAERQQSLFSSPRTGDKKDLTKSWVDSRDPINHRRAALDHSCSPSKGPVDWSRENSTSSGPSPRDSLAEKPYCSQVDFIYRQERGGGSSFDLRKDASQSEVSGENEGNLPSPEEDGFTISLSHVAVPGSPDQRDTVTTPLREVSADGPIQVTSTVKNGHAVPGEDPRGQLGTHAEYASGLMSPLTMSLLENPDNEGSPPSEQLVQDGATHSLVAESTGGPVVSHTVPSGDQEAALPVSSATRHLWLSSSPPDNKPGGDLPALSPSPIRQHPADKLPSREADLGEACQSRETVLFSHEHMGSEQYDADAEETGLDGSWGFPGKPFTTIHMGVPHSGPTLTPRTGSSDVADQLWAQERKHPTRLGWQEFGLSTDPIKLPCNSENVTWLKPRPISRCLARPSSPLVPSCSPKTAGTLRQPTLEQAQQVVIRAHQEQLDEMAELGFKEETLMSQLASNDFEDFVTQLDEIMVLKSKCIQSLRSQLQLYLTCHGPTAAPEGTVPS
partner: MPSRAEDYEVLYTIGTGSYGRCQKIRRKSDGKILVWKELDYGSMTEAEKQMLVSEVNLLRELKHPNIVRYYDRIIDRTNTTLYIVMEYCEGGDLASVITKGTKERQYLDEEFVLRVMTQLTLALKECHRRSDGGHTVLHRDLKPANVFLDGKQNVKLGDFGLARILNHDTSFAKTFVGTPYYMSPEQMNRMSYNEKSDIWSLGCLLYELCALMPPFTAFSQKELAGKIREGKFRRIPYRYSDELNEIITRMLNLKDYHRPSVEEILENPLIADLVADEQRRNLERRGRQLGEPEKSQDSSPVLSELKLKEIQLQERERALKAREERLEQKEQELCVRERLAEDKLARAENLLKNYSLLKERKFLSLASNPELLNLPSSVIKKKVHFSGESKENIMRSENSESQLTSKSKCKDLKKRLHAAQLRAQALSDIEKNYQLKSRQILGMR

Variants of: B1
Settings: with nek2_human NEK2, P51955

Row | effect of a mutation on the interaction | Variant
1 | decreasing interaction | T621A;S622A
